From article PMC4976051 (Journal of molecular biology, 2016)

Biological target: T1, E. coli RecB (E. coli, UniProt P08394 1-1180)
T1 sequence (looked up): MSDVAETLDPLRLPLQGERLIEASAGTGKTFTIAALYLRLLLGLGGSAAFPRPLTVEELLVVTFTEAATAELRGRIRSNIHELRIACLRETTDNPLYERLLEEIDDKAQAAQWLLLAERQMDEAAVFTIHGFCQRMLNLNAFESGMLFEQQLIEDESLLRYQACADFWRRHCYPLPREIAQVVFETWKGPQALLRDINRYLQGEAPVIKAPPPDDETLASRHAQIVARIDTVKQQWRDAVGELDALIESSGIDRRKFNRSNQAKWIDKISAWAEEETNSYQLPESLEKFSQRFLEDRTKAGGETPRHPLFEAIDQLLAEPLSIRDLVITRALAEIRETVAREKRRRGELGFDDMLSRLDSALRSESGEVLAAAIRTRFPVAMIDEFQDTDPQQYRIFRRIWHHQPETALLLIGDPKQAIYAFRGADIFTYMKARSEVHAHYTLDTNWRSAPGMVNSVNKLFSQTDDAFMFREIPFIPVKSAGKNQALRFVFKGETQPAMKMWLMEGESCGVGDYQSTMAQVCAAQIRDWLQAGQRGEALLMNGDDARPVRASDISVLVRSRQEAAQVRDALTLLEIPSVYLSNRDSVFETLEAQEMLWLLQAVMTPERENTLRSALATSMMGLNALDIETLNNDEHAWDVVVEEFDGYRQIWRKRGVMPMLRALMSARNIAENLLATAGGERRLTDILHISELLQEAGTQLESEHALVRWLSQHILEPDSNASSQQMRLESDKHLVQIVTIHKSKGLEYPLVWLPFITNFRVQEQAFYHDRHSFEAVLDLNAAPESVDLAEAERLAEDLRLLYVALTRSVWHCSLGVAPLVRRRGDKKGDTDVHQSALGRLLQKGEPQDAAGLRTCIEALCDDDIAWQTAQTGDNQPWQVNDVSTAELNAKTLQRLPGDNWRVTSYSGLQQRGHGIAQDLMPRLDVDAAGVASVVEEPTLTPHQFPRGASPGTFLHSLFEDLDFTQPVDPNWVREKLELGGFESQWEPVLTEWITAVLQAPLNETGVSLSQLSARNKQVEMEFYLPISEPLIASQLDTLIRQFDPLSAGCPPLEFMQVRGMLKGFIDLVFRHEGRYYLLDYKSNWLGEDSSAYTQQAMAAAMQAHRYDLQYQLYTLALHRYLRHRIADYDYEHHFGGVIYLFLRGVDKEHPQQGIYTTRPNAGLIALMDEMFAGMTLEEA
Test: reconstitution from purified subunits

binding result: binds
B1: E. coli RecC (natural protein, UniProt P07648 1-1122, looked up)
chain: MLRVYHSNRLDVLEALMEFIVERERLDDPFEPEMILVQSTGMAQWLQMTLSQKFGIAANIDFPLPASFIWDMFVRVLPEIPKESAFNKQSMSWKLMTLLPQLLEREDFTLLRHYLTDDSDKRKLFQLSSKAADLFDQYLVYRPDWLAQWETGHLVEGLGEAQAWQAPLWKALVEYTHQLGQPRWHRANLYQRFIETLESATTCPPGLPSRVFICGISALPPVYLQALQALGKHIEIHLLFTNPCRYYWGDIKDPAYLAKLLTRQRRHSFEDRELPLFRDSENAGQLFNSDGEQDVGNPLLASWGKLGRDYIYLLSDLESSQELDAFVDVTPDNLLHNIQSDILELENRAVAGVNIEEFSRSDNKRPLDPLDSSITFHVCHSPQREVEVLHDRLLAMLEEDPTLTPRDIIVMVADIDSYSPFIQAVFGSAPADRYLPYAISDRRARQSHPVLEAFISLLSLPDSRFVSEDVLALLDVPVLAARFDITEEGLRYLRQWVNESGIRWGIDDDNVRELELPATGQHTWRFGLTRMLLGYAMESAQGEWQSVLPYDESSGLIAELVGHLASLLMQLNIWRRGLAQERPLEEWLPVCRDMLNAFFLPDAETEAAMTLIEQQWQAIIAEGLGAQYGDAVPLSLLRDELAQRLDQERISQRFLAGPVNICTLMPMRSIPFKVVCLLGMNDGVYPRQLAPLGFDLMSQKPKRGDRSRRDDDRYLFLEALISAQQKLYISYIGRSIQDNSERFPSVLVQELIDYIGQSHYLPGDEALNCDESEARVKAHLTCLHTRMPFDPQNYQPGERQSYAREWLPAASQAGKAHSEFVQPLPFTLPETVPLETLQRFWAHPVRAFFQMRLQVNFRTEDSEIPDTEPFILEGLSRYQINQQLLNALVEQDDAERLFRRFRAAGDLPYGAFGEIFWETQCQEMQQLADRVIACRQPGQSMEIDLACNGVQITGWLPQVQPDGLLRWRPSLLSVAQGMQLWLEHLVYCASGGNGESRLFLRKDGEWRFPPLAAEQALHYLSQLIEGYREGMSAPLLVLPESGGAWLKTCYDAQNDAMLDDDSTLQKARTKFLQAYEGNMMVRGEGDDIWYQRLWRQLTPETMEAIVEQSQRFLLPLFRFNQS
